Measurements as given in the supplement of paper PMC6379048.

What was measured:
Test in all cases: Kd (EC50 corrected by depletion factor)
MEX3A = molecular target: T1, MEX3A (UniProt A1L020)
T1 sequence: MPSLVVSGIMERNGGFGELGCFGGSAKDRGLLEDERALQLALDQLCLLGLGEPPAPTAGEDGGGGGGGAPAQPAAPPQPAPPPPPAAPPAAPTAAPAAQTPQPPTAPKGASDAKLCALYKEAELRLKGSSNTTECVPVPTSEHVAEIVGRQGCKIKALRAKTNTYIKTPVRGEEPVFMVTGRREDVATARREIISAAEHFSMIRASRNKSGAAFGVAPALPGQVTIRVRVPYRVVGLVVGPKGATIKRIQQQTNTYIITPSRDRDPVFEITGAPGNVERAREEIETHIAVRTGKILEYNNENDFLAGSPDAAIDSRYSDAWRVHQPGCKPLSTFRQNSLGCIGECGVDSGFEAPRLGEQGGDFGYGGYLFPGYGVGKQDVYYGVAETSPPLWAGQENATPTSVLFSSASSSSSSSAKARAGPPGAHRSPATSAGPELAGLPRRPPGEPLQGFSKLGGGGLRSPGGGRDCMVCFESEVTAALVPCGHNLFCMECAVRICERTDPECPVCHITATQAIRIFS
Procedure, shortened: (§1)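 Free RNA oligos (0 nM to 30 μM) competed for 1 h at 4°C in HEK293-FT lysate (2.5 mg protein/well) before a 30 min, 4°C pulldown with the same oligos on NHS-Sepharose beads. Bound proteins were quantified by label-free LC-MS/MS and normalised to the control. Kd was found by multiplying EC50, from a four-parameter log-logistic fit, by a protein-dependent depletion factor.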

RBM4 = molecular target: T2, RBM4 (UniProt Q9BWF3)
T2 sequence: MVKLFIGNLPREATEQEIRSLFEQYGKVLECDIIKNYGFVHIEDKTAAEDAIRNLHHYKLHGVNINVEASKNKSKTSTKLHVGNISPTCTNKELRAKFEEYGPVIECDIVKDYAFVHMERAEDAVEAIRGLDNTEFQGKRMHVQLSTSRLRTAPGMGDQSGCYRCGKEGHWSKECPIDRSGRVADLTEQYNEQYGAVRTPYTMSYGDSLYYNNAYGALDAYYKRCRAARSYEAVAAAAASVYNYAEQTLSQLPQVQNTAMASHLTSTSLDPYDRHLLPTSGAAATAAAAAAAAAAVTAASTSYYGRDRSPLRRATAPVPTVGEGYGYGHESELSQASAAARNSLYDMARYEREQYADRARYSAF
Procedure, shortened: as §1

TFIP11 = molecular target: T3, TFIP11 (UniProt Q9UBB9)
T3 sequence: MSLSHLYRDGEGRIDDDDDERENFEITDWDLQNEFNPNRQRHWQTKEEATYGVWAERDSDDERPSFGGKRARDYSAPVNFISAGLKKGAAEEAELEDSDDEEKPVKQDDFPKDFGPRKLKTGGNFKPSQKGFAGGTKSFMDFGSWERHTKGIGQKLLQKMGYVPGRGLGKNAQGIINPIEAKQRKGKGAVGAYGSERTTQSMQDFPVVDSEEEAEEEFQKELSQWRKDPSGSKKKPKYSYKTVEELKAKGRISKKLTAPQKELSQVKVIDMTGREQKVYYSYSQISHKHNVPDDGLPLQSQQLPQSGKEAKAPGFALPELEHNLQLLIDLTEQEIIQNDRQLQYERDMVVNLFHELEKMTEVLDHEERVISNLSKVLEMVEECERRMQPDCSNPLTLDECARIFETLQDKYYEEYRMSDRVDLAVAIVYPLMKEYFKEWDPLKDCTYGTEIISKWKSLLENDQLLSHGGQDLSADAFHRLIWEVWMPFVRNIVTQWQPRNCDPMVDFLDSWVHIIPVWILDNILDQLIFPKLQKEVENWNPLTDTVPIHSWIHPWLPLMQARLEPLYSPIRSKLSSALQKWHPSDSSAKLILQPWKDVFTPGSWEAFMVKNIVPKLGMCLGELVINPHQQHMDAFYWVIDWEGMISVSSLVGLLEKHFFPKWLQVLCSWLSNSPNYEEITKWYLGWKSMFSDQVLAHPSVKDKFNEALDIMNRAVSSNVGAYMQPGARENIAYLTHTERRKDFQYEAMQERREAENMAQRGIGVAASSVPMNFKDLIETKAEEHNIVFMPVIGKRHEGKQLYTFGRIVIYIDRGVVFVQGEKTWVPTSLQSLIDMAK
Procedure, shortened: as §1

ZNF830 = molecular target: T4, ZNF830 (UniProt Q96NB3)
T4 sequence: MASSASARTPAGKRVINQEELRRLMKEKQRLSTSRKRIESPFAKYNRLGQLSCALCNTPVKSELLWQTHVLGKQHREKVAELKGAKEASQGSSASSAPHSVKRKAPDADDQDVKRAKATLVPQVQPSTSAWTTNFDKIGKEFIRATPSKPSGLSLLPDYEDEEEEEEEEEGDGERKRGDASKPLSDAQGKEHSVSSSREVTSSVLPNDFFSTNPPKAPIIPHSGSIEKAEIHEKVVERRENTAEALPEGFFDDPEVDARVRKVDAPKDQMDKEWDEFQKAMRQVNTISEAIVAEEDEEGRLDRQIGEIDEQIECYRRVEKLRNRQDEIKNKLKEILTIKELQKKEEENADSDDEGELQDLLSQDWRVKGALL
Procedure, shortened: as §1

LSM1 = molecular target: T5, LSM1 (UniProt O15116)
T5 sequence: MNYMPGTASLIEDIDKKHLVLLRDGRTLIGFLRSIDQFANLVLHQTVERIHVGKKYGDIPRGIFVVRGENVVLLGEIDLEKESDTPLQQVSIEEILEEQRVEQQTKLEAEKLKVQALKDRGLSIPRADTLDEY
Procedure, shortened: as §1

| Sequence | Kd (MEX3A) | Kd (RBM4) | Kd (TFIP11) | Kd (ZNF830) | Kd (LSM1) |
| --- | --- | --- | --- | --- | --- |
| AAUAAA | 536 nM | 344 nM | 569 nM | 379 nM | 23.2 nM |
| CUGUCCU | – | 131 nM | – | – | – |
| UAUUUAU | 277 nM | – | 1230 nM | 228 nM | 167 nM |
